Data on three molecules can be found in article PMC6411835 (Nucleic Acids Research, 2018).

To fix the notation:
T1: surface-lysine methylated Zip2^499–704 (S. cerevisiae, UniProt P53061 499-704)
T1 sequence: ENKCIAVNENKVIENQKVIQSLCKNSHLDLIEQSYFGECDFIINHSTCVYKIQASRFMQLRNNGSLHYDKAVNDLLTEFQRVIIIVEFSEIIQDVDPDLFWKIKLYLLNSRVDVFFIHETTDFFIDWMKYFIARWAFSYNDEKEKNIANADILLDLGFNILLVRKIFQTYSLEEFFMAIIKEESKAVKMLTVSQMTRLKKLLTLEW

B1: Zip2^499–704 (domain or fragment)
chain: T1 sequence
B2: His6-Spo16 (natural protein)
chain: SEFFWDVQKIQEISNVEEHSVVKCVTVNTSRLISQLNEELQDEESGVNFIVTQLQLLINNVYEKIQKSPGVPAHRSLMINLNFTRLKFSIAYWDILLERSLDLINGPSKTGARYFITEVTPVDRSRYVENNQYFLAFKANQRLTRNSVDMDEFIDFEILIKQIIFDLFKKNGIPDQDFEAILSRFHNLESLVVAFNE
B3: surface-lysine methylated His6-Spo16 (natural protein)
chain: B2 chain
modifications: surface lysine residues dimethylated (dimethyllysine)

The assay “His6-Spo16” addresses B2. Put plainly: SEC-MALS. Background: In gel filtration, larger molecules generally elute earlier.
The target in the assay “Zip2^499–704” is B1. The assay can be described thus: co-purification after co-expression.
Assay [1] concerns the target T1, surface-lysine methylated Zip2^499–704. Put plainly: crystal structure.

What is called stoichiometry N is a count of units in the complex or per binding partner. For the molecule B1, in the assay with His6-Spo16, the “stoichiometry N” value came to 1.
For the molecule B2, the binding result with Zip2^499–704 is on record as “binds”.
Regarding B3, the binding result in assay [1] is on record as “binds”.
